Source: paper PMC10636324 (Proceedings of the National Academy of Sciences of the …, 2023)

T1: FAM91A1^N (N terminus of FAM91A1, residues 1-328), wild type (UniProt Q658Y4 1-328)
T1 sequence (looked up): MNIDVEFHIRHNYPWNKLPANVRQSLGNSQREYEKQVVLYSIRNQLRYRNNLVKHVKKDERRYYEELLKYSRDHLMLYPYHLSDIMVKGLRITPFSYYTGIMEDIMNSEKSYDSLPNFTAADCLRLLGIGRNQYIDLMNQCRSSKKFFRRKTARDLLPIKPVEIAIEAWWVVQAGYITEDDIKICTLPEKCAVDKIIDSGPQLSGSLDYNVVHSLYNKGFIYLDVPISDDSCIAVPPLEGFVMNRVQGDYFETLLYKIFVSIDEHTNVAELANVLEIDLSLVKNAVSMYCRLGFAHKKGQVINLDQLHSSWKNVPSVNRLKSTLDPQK


Assays:
[1] = target: T1, FAM91A1^N (N terminus of FAM91A1, …); experiment: ITC
[2] = target: T1, FAM91A1^N (N terminus of FAM91A1, …); experiment: pull-down

Binder	binding result [2]	further results
TPVDRHVSSSDRVGKPYRGVKPVFS (peptide, UniProt Q9NUY8-2 514-538, looked up) [TBC1D23^514-538 wild type]		Kd [1]: 1150 ± 160 nM
TPVDRHVSSSDRVGKPYCGVKPVFS (peptide, UniProt Q9NUY8-2 514-538, looked up) [TBC1D23^514-538 R531C]		affinity as percent of that of WT [1]: ~6.6%
TPVDRHVSSSDRVGKPYRGVKPVLS (peptide, UniProt Q9NUY8-2 514-538, looked up) [TBC1D23^514-538 F537L]		affinity as percent of that of WT [1]: ~16.4%
TPVDRHVSSSDRVGKPYHGVKPVFS (peptide, UniProt Q9NUY8-2 514-538, looked up) [TBC1D23^514-538 R531H]		affinity as percent of that of WT [1]: ~7.9%
TPVDRHVSSSDRVGKPYRGVKPVLSIGDEEEYDTDEIDSSSMSDD (domain or fragment, human, UniProt Q9NUY8-2 514-558, looked up) [GST-TBC1D23^514-558 F537L]	binds	
TPVDRHVSSSDRVGKPYRGVKPVFSIGDEEEYDTDEIDSSSMSDD (domain or fragment, human, UniProt Q9NUY8-2 514-558, looked up) [GST-TBC1D23^514-558 wild type]	binds	
TPVDRHVSSSDRVGKAYRGVKPVFSIGDEEEYDTDEIDSSSMSDD (domain or fragment, human, UniProt Q9NUY8-2 514-558, looked up) [GST-TBC1D23^514-558 P529A]	binds	
APVDRHVSSSDRVGKPYRGVKPVFSIGDEEEYDTDEIDSSSMSDD (domain or fragment, human, UniProt Q9NUY8-2 514-558, looked up) [GST-TBC1D23^514-558 T514A]	binds	
TPVDQHVSSSDRVGKPYRGVKPVFSIGDEEEYDTDEIDSSSMSDD (domain or fragment, human, UniProt Q9NUY8-2 514-558, looked up) [GST-TBC1D23^514-558 R518Q]	binds	
TPVDRHVSSSDRVGKPYRGIKPVFSIGDEEEYDTDEIDSSSMSDD (domain or fragment, human, UniProt Q9NUY8-2 514-558, looked up) [GST-TBC1D23^514-558 V533I]	binds	
TPVDRHVSSSDRVGKPYRGVNPVFSIGDEEEYDTDEIDSSSMSDD (domain or fragment, human, UniProt Q9NUY8-2 514-558, looked up) [GST-TBC1D23^514-558 K534N]	binds	
TPVDRHVSSSDRVGKPYHGVKPVFSIGDEEEYDTDEIDSSSMSDD (domain or fragment, human, UniProt Q9NUY8-2 514-558, looked up) [GST-TBC1D23^514-558 R531H]	binds	
TPVDRHVSSSDRVGKPYCGVKPVFSIGDEEEYDTDEIDSSSMSDD (domain or fragment, human, UniProt Q9NUY8-2 514-558, looked up) [GST-TBC1D23^514-558 R531C]	binds	
